From US20260159601A1 (Hoffmann-La Roche, published 2026)

Legend:
human CD20 [1] = target: T1, human CD20 (human, UniProt P11836 1-297); assay: flow cytometry on a human B-cell lymphoma cell line, 30 min at 4 C, detection with FITC-labeled F(ab)'2 goat anti-human Fc-gamma-specific antibody, median fluorescence intensity
T1 construct: On a human B-cell lymphoma cell line, human tonsil-derived B-cells and human PBMC B-cells; also called huCD20; MS4A1
T1 sequence: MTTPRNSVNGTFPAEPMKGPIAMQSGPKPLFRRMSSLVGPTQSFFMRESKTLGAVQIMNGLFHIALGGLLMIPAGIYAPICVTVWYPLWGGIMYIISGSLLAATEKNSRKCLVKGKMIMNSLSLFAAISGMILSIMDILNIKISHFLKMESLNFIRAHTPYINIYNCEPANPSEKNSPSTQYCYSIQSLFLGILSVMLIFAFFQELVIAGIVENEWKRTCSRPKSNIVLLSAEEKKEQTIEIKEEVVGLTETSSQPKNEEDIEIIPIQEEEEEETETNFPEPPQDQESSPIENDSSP

human CD20 [2] = target: T1, human CD20; assay: cell-based or functional assay
[3] = target: T2, cynomolgus monkey transferrin receptor 1 (cynomolgus monkey, UniProt H9EXL1 89-760 (rhesus entry)); assay: surface plasmon resonance at 37° C.; cynomolgus TfR1; SPR at 37° C.
T2 construct: also called cyTfR1

[4] = target: human transferrin receptor 1 on MDCKII cells transfected with huTfR1 (human, UniProt P02786 1-760); assay: cell-based or functional assay
[5] = target: CD20 (species not stated, in-vitro-measured KD used in the cynomolgus monkey PK model); assay: in vitro measurement, method not stated; value used in the PK model

T2 sequence (chain, as listed by the source): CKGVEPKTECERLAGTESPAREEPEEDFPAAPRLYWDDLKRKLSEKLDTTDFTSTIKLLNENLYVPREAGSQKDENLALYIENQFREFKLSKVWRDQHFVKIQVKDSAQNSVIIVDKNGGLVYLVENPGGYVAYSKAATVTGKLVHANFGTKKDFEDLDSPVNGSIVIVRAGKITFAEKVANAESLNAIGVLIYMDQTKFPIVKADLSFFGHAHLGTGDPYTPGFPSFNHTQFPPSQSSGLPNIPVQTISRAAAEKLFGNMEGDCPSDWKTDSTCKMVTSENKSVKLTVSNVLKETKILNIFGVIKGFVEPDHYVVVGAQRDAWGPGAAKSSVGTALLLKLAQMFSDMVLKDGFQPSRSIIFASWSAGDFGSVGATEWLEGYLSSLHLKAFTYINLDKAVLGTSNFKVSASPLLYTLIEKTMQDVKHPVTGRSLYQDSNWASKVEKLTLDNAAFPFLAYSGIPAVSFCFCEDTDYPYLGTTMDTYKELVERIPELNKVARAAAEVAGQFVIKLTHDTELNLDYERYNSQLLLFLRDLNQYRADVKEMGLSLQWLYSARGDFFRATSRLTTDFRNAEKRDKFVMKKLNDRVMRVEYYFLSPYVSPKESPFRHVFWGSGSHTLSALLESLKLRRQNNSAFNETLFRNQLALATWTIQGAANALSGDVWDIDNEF
Chain of human transferrin receptor 1 on MDCKII cells transfected with huTfR1 (P02786 whole entry): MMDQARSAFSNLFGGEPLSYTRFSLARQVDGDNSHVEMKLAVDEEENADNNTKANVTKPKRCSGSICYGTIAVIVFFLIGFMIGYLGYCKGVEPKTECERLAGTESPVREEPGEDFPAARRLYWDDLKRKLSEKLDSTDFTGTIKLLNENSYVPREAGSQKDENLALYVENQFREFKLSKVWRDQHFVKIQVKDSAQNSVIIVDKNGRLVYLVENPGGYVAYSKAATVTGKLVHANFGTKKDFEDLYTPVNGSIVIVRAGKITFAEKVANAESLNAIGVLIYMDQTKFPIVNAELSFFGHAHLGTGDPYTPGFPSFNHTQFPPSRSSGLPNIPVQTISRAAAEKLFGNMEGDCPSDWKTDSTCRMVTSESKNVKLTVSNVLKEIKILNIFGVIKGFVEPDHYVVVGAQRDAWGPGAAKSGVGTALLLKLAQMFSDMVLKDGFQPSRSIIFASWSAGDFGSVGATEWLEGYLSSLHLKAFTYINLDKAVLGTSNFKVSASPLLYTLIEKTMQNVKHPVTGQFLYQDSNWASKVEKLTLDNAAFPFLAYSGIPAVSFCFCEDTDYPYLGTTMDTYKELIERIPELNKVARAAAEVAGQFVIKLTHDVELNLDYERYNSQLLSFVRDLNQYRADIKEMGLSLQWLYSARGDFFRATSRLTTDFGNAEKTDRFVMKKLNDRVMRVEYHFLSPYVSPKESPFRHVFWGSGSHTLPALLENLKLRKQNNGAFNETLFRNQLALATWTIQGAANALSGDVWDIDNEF

EC50 (read off the curve) (human CD20 [1]): ~3 nM
EC50 of CD19+-B-cell depletion, ex vivo human tonsil-derived cells, average of three donors (human CD20 [2]): 0.4 nM
EC50 of CD19+-B-cell depletion, ex vivo human tonsil-derived cells, donor T1 (human CD20 [2]): 0.44 nM
EC50 of CD19+-B-cell depletion, ex vivo human tonsil-derived cells, donor T2 (human CD20 [2]): 0.2 nM
EC50 of CD19+-B-cell depletion, ex vivo human tonsil-derived cells, donor T3 (human CD20 [2]): 0.55 nM
Kd [3]: 694 nM
intracellular uptake in MDCKII-huTfR cells against non-transfected MDCKII-parental cells, 30-minute pulse, IgG ELISA [4]: 30 fold
Kd [5]: 3.3 nM
B1: RG6035 (bispecific antibody, human IgG1, kappa, L234A L235A)
light 1: DIVMTQTPLSLPVTPGEPASISCRSSKSLLHSNGITYLYWYLQKPGQSPQLLIYQMSNLVSGVPDRFSGSGSGTDFTLKISRVEAEDVGVYYCAQNLELPYTFGGGTKVEIKRTVAAPSVFIFPPSDRKLKSGTASVVCLLNNFYPREAKVQWKVDNALQSGNSQESVTEQDSKDSTYSLSSTLTLSKADYEKHKVYACEVTHQGLSSPVTKSFNRGEC
heavy 1: VQLVQSGAEVKKPGSSVKVSCKASGYAFSYSWINWVRQAPGQGLEWMGRIFPGDGDTDYNGKFKGRVTITADKSTSTAYMELSSLRSEDTAVYYCARNVFDGYWLVYWGQGTLVTVSSASTKGPSVFPLAPSSKSTSGGTAALGCLVEDYFPEPVTVSWNSGALTSGVHTFPAVLQSSGLYSLSSVVTVPSSSLGTQTYICNVNHKPSNTKVDEKVEPKSCDKTHTCPPCPAPEAAGGPSVFLFPPKPKDTLMISRTPEVTCVVVDVSHEDPEVKFNWYVDGVEVHNAKTKPREEQYNSTYRVVSVLTVLHQDWLNGKEYKCKVSNKALGAPIEKTISKAKGQPREPQVCTLPPSRDELTKNQVSLSCAVKGFYPSDIAVEWESNGQPENNYKTTPPVLDSDGSFFLVSKLTVDKSRWQQGNVFSCSVMHEALHNHYTQKSLSLSPG
light 2: AIQLTQSPSSLSASVGDRVTITCRASQSISSYLAWYQQKPGKAPKLLIYRASTLASGVPSRFSGSGSGTDFTLTISSLQPEDFATYYCQQNYASSNVDNTFGGGTKVEIKSSASTKGPSVFPLAPSSKSTSGGTAALGCLVKDYFPEPVTVSWNSGALTSGVHTFPAVLQSSGLYSLSSVVTVPSSSLGTQTYICNVNHKPSNTKVDKKVEPKSC
heavy 2: not shown
notes: human IgG1 Fc with L234A, L235A, P329G; also called RO7121932; BS-CD20
